B1: Fam20c(M1-R584)_MYC (protein)
chain: MKMMLVRRFRVLILMVFLVACALHIALDLLPRLERRGARPSGEPGCSCAQPAAEVAAPGWAQVRGRPGEPPAASSAAGDAGWPNKHTLRILQDFSSDPSSNLSSHSLEKLPPAAEPAERALRGRDPGALRPHDPAHRPLLRDPGPRRSESPPGPGGDASLLARLFEHPLYRVAVPPLTEEDVLFNVNSDTRLSPKAAENPDWPHAGAEGAEFLSPGEAAVDSYPNWLKFHIGINRYELYSRHNPAIEALLHDLSSQRITSVAMKSGGTQLKLIMTFQNYGQALFKPMKQTREQETPPDFFYFSDYERHNAEIAAFHLDRILDFRRVPPVAGRMVNMTKEIRDVTRDKKLWRTFFISPANNICFYGECSYYCSTEHALCGKPDQIEGSLAAFLPDLSLAKRKTWRNPWRRSYHKRKKAEWEVDPDYCEEVKQTPPYDSSHRILDVMDMTIFDFLMGNMDRHHYETFEKFGNETFIIHLDNGRGFGKYSHDELSILVPLQQCCRIRKSTYLRLQLLAKEEYKLSLLMAESLRGDQVAPVLYQPHLEALDRRLRVVLKAVRDCVERNGLHSVVDDDLDTEHRAASAREQKLISEEDL
B2: ScMNN2(M1-S36)_Fam20c(R32-R584)_FLAG (protein)
chain: MLLTKRFSKLFKLTFIVLILCGLFVITNKYMDENTSRLERRGARPSGEPGCSCAQPAAEVAAPGWAQVRGRPGEPPAASSAAGDAGWPNKHTLRILQDFSSDPSSNLSSHSLEKLPPAAEPAERALRGRDPGALRPHDPAHRPLLRDPGPRRSESPPGPGGDASLLARLFEHPLYRVAVPPLTEEDVLFNVNSDTRLSPKAAENPDWPHAGAEGAEFLSPGEAAVDSYPNWLKFHIGINRYELYSRHNPAIEALLHDLSSQRITSVAMKSGGTQLKLIMTFQNYGQALFKPMKQTREQETPPDFFYFSDYERHNAEIAAFHLDRILDFRRVPPVAGRMVNMTKEIRDVTRDKKLWRTFFISPANNICFYGECSYYCSTEHALCGKPDQIEGSLAAFLPDLSLAKRKTWRNPWRRSYHKRKKAEWEVDPDYCEEVKQTPPYDSSHRILDVMDMTIFDFLMGNMDRHHYETFEKFGNETFIIHLDNGRGFGKYSHDELSILVPLQQCCRIRKSTYLRLQLLAKEEYKLSLLMAESLRGDQVAPVLYQPHLEALDRRLRVVLKAVRDCVERNGLHSVVDDDLDTEHRAASARDYKDDDDK
B3: ScMNN2(M1-P97)_Fam20c(R32-R584)_FLAG (protein)
chain: MLLTKRFSKLFKLTFIVLILCGLFVITNKYMDENTSVKEYKEYLDRYVQSYSNKYSSSSDAASADDSTPLRDNDEAGNEKLKSFYNNVFNFLMVDSPRLERRGARPSGEPGCSCAQPAAEVAAPGWAQVRGRPGEPPAASSAAGDAGWPNKHTLRILQDFSSDPSSNLSSHSLEKLPPAAEPAERALRGRDPGALRPHDPAHRPLLRDPGPRRSESPPGPGGDASLLARLFEHPLYRVAVPPLTEEDVLFNVNSDTRLSPKAAENPDWPHAGAEGAEFLSPGEAAVDSYPNWLKFHIGINRYELYSRHNPAIEALLHDLSSQRITSVAMKSGGTQLKLIMTFQNYGQALFKPMKQTREQETPPDFFYFSDYERHNAEIAAFHLDRILDFRRVPPVAGRMVNMTKEIRDVTRDKKLWRTFFISPANNICFYGECSYYCSTEHALCGKPDQIEGSLAAFLPDLSLAKRKTWRNPWRRSYHKRKKAEWEVDPDYCEEVKQTPPYDSSHRILDVMDMTIFDFLMGNMDRHHYETFEKFGNETFIIHLDNGRGFGKYSHDELSILVPLQQCCRIRKSTYLRLQLLAKEEYKLSLLMAESLRGDQVAPVLYQPHLEALDRRLRVVLKAVRDCVERNGLHSVVDDDLDTEHRAASARDYKDDDDK
B4: ScMNN2(M1-S150)_Fam20c(R32-R584)_FLAG (protein)
chain: MLLTKRFSKLFKLTFIVLILCGLFVITNKYMDENTSVKEYKEYLDRYVQSYSNKYSSSSDAASADDSTPLRDNDEAGNEKLKSFYNNVFNFLMVDSPKGSTAKQYNEACLLKGDIGDRPDHYKDLYKLSAKELSKCLELSPDEVASLTKSRLERRGARPSGEPGCSCAQPAAEVAAPGWAQVRGRPGEPPAASSAAGDAGWPNKHTLRILQDFSSDPSSNLSSHSLEKLPPAAEPAERALRGRDPGALRPHDPAHRPLLRDPGPRRSESPPGPGGDASLLARLFEHPLYRVAVPPLTEEDVLFNVNSDTRLSPKAAENPDWPHAGAEGAEFLSPGEAAVDSYPNWLKFHIGINRYELYSRHNPAIEALLHDLSSQRITSVAMKSGGTQLKLIMTFQNYGQALFKPMKQTREQETPPDFFYFSDYERHNAEIAAFHLDRILDFRRVPPVAGRMVNMTKEIRDVTRDKKLWRTFFISPANNICFYGECSYYCSTEHALCGKPDQIEGSLAAFLPDLSLAKRKTWRNPWRRSYHKRKKAEWEVDPDYCEEVKQTPPYDSSHRILDVMDMTIFDFLMGNMDRHHYETFEKFGNETFIIHLDNGRGFGKYSHDELSILVPLQQCCRIRKSTYLRLQLLAKEEYKLSLLMAESLRGDQVAPVLYQPHLEALDRRLRVVLKAVRDCVERNGLHSVVDDDLDTEHRAASARDYKDDDDK
B5: ScMNN6(M1-P30)_Fam20c(R32-R584)_FLAG (protein)
chain: RLERRGARPSGEPGCSCAQPAAEVAAPGWAQVRGRPGEPPAASSAAGDAGWPNKHTLRILQDFSSDPSSNLSSHSLEKLPPAAEPAERALRGRDPGALRPHDPAHRPLLRDPGPRRSESPPGPGGDASLLARLFEHPLYRVAVPPLTEEDVLFNVNSDTRLSPKAAENPDWPHAGAEGAEFLSPGEAAVDSYPNWLKFHIGINRYELYSRHNPAIEALLHDLSSQRITSVAMKSGGTQLKLIMTFQNYGQALFKPMKQTREQETPPDFFYFSDYERHNAEIAAFHLDRILDFRRVPPVAGRMVNMTKEIRDVTRDKKLWRTFFISPANNICFYGECSYYCSTEHALCGKPDQIEGSLAAFLPDLSLAKRKTWRNPWRRSYHKRKKAEWEVDPDYCEEVKQTPPYDSSHRILDVMDMTIFDFLMGNMDRHHYETFEKFGNETFIIHLDNGRGFGKYSHDELSILVPLQQCCRIRKSTYLRLQLLAKEEYKLSLLMAESLRGDQVAPVLYQPHLEALDRRLRVVLKAVRDCVERNGLHSVVDDDLDTEHRAASARDYKDDDDK
B6: ScKRE2(M1-S80)_Fam20c(D93-R584)_FLAG (protein)
chain: MALFLSKRLLRFTVIAGAVIVLLLTLNSNSRTQQYIPSSISAAFDFTSGSISPEQQVISEENDAKKLEQSALNSEASEDSDFSSDPSSNLSSHSLEKLPPAAEPAERALRGRDPGALRPHDPAHRPLLRDPGPRRSESPPGPGGDASLLARLFEHPLYRVAVPPLTEEDVLFNVNSDTRLSPKAAENPDWPHAGAEGAEFLSPGEAAVDSYPNWLKFHIGINRYELYSRHNPAIEALLHDLSSQRITSVAMKSGGTQLKLIMTFQNYGQALFKPMKQTREQETPPDFFYFSDYERHNAEIAAFHLDRILDFRRVPPVAGRMVNMTKEIRDVTRDKKLWRTFFISPANNICFYGECSYYCSTEHALCGKPDQIEGSLAAFLPDLSLAKRKTWRNPWRRSYHKRKKAEWEVDPDYCEEVKQTPPYDSSHRILDVMDMTIFDFLMGNMDRHHYETFEKFGNETFIIHLDNGRGFGKYSHDELSILVPLQQCCRIRKSTYLRLQLLAKEEYKLSLLMAESLRGDQVAPVLYQPHLEALDRRLRVVLKAVRDCVERNGLHSVVDDDLDTEHRAASARDYKDDDDK
B7: ScMNN1(M1-A42)_Fam20c(D93-R584)_FLAG (protein)
chain: MLALRRFILNQRSLRSCTIPILVGALIIILVLFQLVTHRNDADFSSDPSSNLSSHSLEKLPPAAEPAERALRGRDPGALRPHDPAHRPLLRDPGPRRSESPPGPGGDASLLARLFEHPLYRVAVPPLTEEDVLFNVNSDTRLSPKAAENPDWPHAGAEGAEFLSPGEAAVDSYPNWLKFHIGINRYELYSRHNPAIEALLHDLSSQRITSVAMKSGGTQLKLIMTFQNYGQALFKPMKQTREQETPPDFFYFSDYERHNAEIAAFHLDRILDFRRVPPVAGRMVNMTKEIRDVTRDKKLWRTFFISPANNICFYGECSYYCSTEHALCGKPDQIEGSLAAFLPDLSLAKRKTWRNPWRRSYHKRKKAEWEVDPDYCEEVKQTPPYDSSHRILDVMDMTIFDFLMGNMDRHHYETFEKFGNETFIIHLDNGRGFGKYSHDELSILVPLQQCCRIRKSTYLRLQLLAKEEYKLSLLMAESLRGDQVAPVLYQPHLEALDRRLRVVLKAVRDCVERNGLHSVVDDDLDTEHRAASARDYKDDDDK
B8: ScKRE(M1-I58)_Fam20c(R32-R584)_FLAG (protein)
chain: MALFLSKRLLRFTVIAGAVIVLLLTLNSNSRTQQYIPSSISAAFDFTSGSISPEQQVIRLERRGARPSGEPGCSCAQPAAEVAAPGWAQVRGRPGEPPAASSAAGDAGWPNKHTLRILQDFSSDPSSNLSSHSLEKLPPAAEPAERALRGRDPGALRPHDPAHRPLLRDPGPRRSESPPGPGGDASLLARLFEHPLYRVAVPPLTEEDVLFNVNSDTRLSPKAAENPDWPHAGAEGAEFLSPGEAAVDSYPNWLKFHIGINRYELYSRHNPAIEALLHDLSSQRITSVAMKSGGTQLKLIMTFQNYGQALFKPMKQTREQETPPDFFYFSDYERHNAEIAAFHLDRILDFRRVPPVAGRMVNMTKEIRDVTRDKKLWRTFFISPANNICFYGECSYYCSTEHALCGKPDQIEGSLAAFLPDLSLAKRKTWRNPWRRSYHKRKKAEWEVDPDYCEEVKQTPPYDSSHRILDVMDMTIFDFLMGNMDRHHYETFEKFGNETFIIHLDNGRGFGKYSHDELSILVPLQQCCRIRKSTYLRLQLLAKEEYKLSLLMAESLRGDQVAPVLYQPHLEALDRRLRVVLKAVRDCVERNGLHSVVDDDLDTEHRAASARDYKDDDDK

Biological target: T1, FLAG_SERPINB14_HiBiT
T1 chain: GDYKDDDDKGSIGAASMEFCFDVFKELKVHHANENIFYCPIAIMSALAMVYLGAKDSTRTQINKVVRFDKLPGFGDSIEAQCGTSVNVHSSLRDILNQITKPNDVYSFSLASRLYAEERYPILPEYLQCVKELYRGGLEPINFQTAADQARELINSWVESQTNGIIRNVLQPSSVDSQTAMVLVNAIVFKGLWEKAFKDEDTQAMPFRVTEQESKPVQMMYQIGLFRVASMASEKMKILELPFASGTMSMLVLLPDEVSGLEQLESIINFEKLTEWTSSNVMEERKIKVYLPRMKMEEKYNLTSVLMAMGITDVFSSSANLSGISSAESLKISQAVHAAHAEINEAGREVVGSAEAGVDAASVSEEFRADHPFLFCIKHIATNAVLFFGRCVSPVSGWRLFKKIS

Protein | phosphorylation sites detected by LC-MS/MS after co-expression in Pichia pastoris
B1 | S69, T76, T92, S99, S165, T202, S206, and S345

biological target: FLAG_TRX_SPP1 (G158-N314)_HiBiT
Sequence (chain, as listed by the source): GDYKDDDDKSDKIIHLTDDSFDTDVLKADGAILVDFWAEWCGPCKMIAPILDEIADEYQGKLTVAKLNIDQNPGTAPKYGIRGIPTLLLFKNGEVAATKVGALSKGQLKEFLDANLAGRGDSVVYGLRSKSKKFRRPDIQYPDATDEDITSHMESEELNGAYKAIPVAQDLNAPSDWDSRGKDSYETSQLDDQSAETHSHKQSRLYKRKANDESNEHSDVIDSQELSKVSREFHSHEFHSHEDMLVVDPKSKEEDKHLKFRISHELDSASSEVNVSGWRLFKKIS

Protein | Phosphorylation
B2 | Yes
B3 | Yes
B4 | Yes
B5 | Yes
B1 | Yes
B6 | Yes
B7 | Yes
B8 | Yes

From patent US20260176314
